B1: he3Fab-rGelA50(C44) (other)
light: DIQMTQSPSSLSASVGDRVTITCRASQDINSYLSWFQQKPGKAPKTLIYRANRLESGVPSRFSGSGSGTDYTLTISSLQYEDFGIYYCQQYDESPWTFGGGTKLEIK
heavy: EIQLVQSGGGLVKPGGSVRISCAASGYTFTNYGMNWVRQAPGKGLEWMGWINTHTGEPTYADSFKGRFTFSLDDSKNTAYLQINSLRAEDTAVYFCTRRGYDWYFDVWGQGTTVTVSS
chain: GLDTVSFSTKGATYITYVNFLNELRVKLKPEGNSHGIPLLRKKCDDPGKAFVLVALSNDNGQLAEIAIDVTSVYVVGYQVRNRSYFFKDAPDAAYEGLFKNTIKTRLHFGGSYPSLEGEKAYRETTDLGIEPLRIGIKKLDENAIDNYKPTEIASSLLVVIQMVSEAARFTFIENQIRNNFQQRIRPANNTISLENKWGKLSFQIRTSGANGMFSEAVELERANGKKYYVTAVDQVKPKIALLKFVDKDPK
B2: he3 IgG (human-engineered H65 antibody, moderate-risk changes, ATCC HB 11206) (antibody, V domains shown)
VH: EIQLVQSGGGLVKPGGSVRISCAASGYTFTNYGMNWVRQAPGKGLEWMGWINTHTGEPTYADSFKGRFTFSLDDSKNTAYLQINSLRAEDTAVYFCTRRGYDWYFDVWGQGTTVTVSS
VL: DIQMTQSPSSLSASVGDRVTITCRASQDINSYLSWFQQKPGKAPKTLIYRANRLESGVPSRFSGSGSGTDYTLTISSLQYEDFGIYYCQQYDESPWTFGGGTKLEIK
notes: also called he3 antibody; humanized antibody
B3: chimeric H65 IgG (antibody, V domains shown)
VL: […]
VH: QIQLVQSGPELKKPGETVKISCKASGYTFTNYGMNWVKQAPGKGLRWMGWINTHTGEPTYADDFKGRFAFSLETSASTAYLQINNLKNEDTATYFCTRRGYDWYFDVWGAGTTVTVSS
notes: also called 125I-cH65 IgG

Legend:
[1] = target: T1, human CD5 cell differentiation marker (human, UniProt P06127 25-495); experiment: cell-based or functional assay
T1 sequence: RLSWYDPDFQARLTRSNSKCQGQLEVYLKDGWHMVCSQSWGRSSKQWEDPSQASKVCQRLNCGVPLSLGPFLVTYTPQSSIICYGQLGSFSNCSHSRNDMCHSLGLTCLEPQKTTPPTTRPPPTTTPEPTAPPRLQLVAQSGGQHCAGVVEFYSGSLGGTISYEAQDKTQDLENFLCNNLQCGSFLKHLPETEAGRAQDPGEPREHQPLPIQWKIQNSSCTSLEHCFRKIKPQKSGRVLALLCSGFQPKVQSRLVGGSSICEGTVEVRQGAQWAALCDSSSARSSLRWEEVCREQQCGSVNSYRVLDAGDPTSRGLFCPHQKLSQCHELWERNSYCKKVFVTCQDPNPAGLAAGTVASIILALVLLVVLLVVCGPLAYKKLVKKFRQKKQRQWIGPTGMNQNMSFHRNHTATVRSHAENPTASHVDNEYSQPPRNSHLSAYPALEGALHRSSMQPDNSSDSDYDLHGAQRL

[2] = target: T1, human CD5 cell differentiation marker; experiment: competition with 125I-cH65 IgG on Molt-4M cells

| Binder | IC50 (pMT), whole cell cytotoxicity, CEM Cells [1] [pMT] | IC50 (pMT), whole cell cytotoxicity, HSB2 Cells [1] [pMT] | binding result [2] |
| --- | --- | --- | --- |
| B1 | 173 | 165 | – |
| B2 | – | – | binds |
| B3 | – | – | binds |
